In patent US20110159022A1, “Immunogenic Peptides Derived from the Midkine Protein, as an Anticancer Vaccine” (priority 2008, published 2011):
Substitutions are numbered along the chain they refer to.

Assays:
HLA-DRB3 (DRB3*0101) = HLA-DRB3 (DRB3*0101) (Homo sapiens, UniProt P01903+P79483); experiment: HLA II/peptide competition binding assay, DRB3; conditions: ratio of IC50 of competitor peptide to IC50 of reference peptide; mean of at least two independent experiments; less than 100 = active
HLA-DR3 (DRB1*0301) = HLA-DR3 (DRB1*0301) (Homo sapiens, UniProt P01903+P01911, A100K/A102G/A103R/A169T/F55Y/I96L/K41T/L162R/M171V/P40S/Q125H/Q178H/Q39Y/R42S/S66N/T106N/T262R/W38E/Y61H); experiment: HLA II/peptide competition binding assay, DR3; conditions: ratio of IC50 of competitor peptide to IC50 of reference peptide; mean of at least two independent experiments; less than 100 = active
HLA-DR7 (DRB1*0701) = HLA-DR7 (DRB1*0701) (Homo sapiens, UniProt P01903+P01911, A100R/A102G/A103Q/D57E/D86V/E43K/F76Y/K127E/L162R/M171V/P40G/Q125H/Q99D/R33Q/R42Y/R54Q/S133A/S66F/T210M/V115G/Y107V/Y59L/Y89S); experiment: HLA II/peptide competition binding assay, DR7; conditions: ratio of IC50 of competitor peptide to IC50 of reference peptide; mean of at least two independent experiments; less than 100 = active
HLA-DP401 (DPB1*0401) = molecular target: T1, HLA-DP401 (DPB1*0401) (Homo sapiens, UniProt P04440+P20036); assay type: binding; conditions: ratio of IC50 of competitor peptide to IC50 of reference peptide; mean of at least two independent experiments; less than 100 = active
T1 sequence (P04440 30-258): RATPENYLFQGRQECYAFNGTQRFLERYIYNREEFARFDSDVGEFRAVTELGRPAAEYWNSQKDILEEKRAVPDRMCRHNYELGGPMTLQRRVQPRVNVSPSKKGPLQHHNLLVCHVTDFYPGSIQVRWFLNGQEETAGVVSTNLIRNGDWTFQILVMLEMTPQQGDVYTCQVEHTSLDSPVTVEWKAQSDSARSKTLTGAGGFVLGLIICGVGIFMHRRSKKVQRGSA
T1 sequence (P20036 29-260): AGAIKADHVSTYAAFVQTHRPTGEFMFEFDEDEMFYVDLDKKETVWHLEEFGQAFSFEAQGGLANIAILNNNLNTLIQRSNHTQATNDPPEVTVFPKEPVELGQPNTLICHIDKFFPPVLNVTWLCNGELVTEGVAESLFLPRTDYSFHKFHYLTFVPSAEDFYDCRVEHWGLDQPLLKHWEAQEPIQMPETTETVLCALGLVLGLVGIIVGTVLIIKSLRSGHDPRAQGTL

HLA-DR1 (DRB1*0101) = HLA-DR1 (DRB1*0101) (Homo sapiens, UniProt P01903+P01911, A100R/D57E/F55L/F60I/F76Y/I96L/L162R/M171V/P40L/Q125E/R42F/V115G/Y59C); assay type: binding; conditions: ratio of IC50 of competitor peptide to IC50 of reference peptide; mean of at least two independent experiments; less than 100 = active
[1] = tested on: 12 predominant HLA II molecules; experiment: HLA II/peptide binding assays, count over the panel; parameters: species or system human; conditions: relative activity of less than 100 characterizes the active peptides
Text: The assays for binding to HLA II molecules are competition binding assays with immunoenzymatic visualization, as described in U.S. Pat. No. 6,649,166 and PCT international application WO 03/040299, respectively, for the HLA-DR and HLA-DP4 molecules. The implementation of these assays for measuring the binding activity of peptides derived from various antigens is illustrated in U.S. Pat. No. 6,649,166 and PCT international applications WO 02/090382, WO 03/040299 and WO 2004/014936.
The sensitivity of each test is reflected by the IC50 values observed with the nonbiotinylated peptides which correspond to the tracers. […] The results are expressed in the form of relative activity (ratio of the IC50 of the competitor peptide to that of the reference peptide (nonbiotinylated peptide which corresponds to the tracer)). A relative activity of less than 100 characterizes the active peptides.

HLA-DRB5 (DRB5*0101) = HLA-DRB5 (DRB5*0101) (Homo sapiens, UniProt P01903+Q30154); experiment: HLA II/peptide competition binding assay, DRB5; conditions: ratio of IC50 of competitor peptide to IC50 of reference peptide; mean of at least two independent experiments; less than 100 = active
HLA-DR4 (DRB1*0401) = HLA-DR4 (DRB1*0401) (Homo sapiens, UniProt P01903+P01911, A100K/A169T/F76Y/I96L/K127E/L162R/M171V/N62H/P40V/Q125Y/R42H/S133A/S149N/S66Y/V115G/V209L/W38E); experiment: HLA II/peptide competition binding assay, DR4; conditions: ratio of IC50 of competitor peptide to IC50 of reference peptide; mean of at least two independent experiments; less than 100 = active
HLA-DR13 (DRB1*1301) = HLA-DR13 (DRB1*1301) (Homo sapiens, UniProt P01903+P01911, A100E/A169T/K41T/L162R/M171V/P40S/Q125H/Q178H/Q39Y/Q99D/R42S/S66N/T262R/W38E/Y61H); experiment: HLA II/peptide competition binding assay, DR13; conditions: ratio of IC50 of competitor peptide to IC50 of reference peptide; mean of at least two independent experiments; less than 100 = active
HLA-DRB4 (DRB4*0101) = HLA-DRB4 (DRB4*0101) (Homo sapiens, UniProt P01903+P13762, G164S); experiment: HLA II/peptide competition binding assay, DRB4; conditions: ratio of IC50 of competitor peptide to IC50 of reference peptide; mean of at least two independent experiments; less than 100 = active
HLA-DR15 (DRB1*1501) = HLA-DR15 (DRB1*1501) (Homo sapiens, UniProt P01903+P01911); experiment: HLA II/peptide competition binding assay, DR15; conditions: ratio of IC50 of competitor peptide to IC50 of reference peptide; mean of at least two independent experiments; less than 100 = active
HLA-DP402 (DPB1*0402) = molecular target: T2, HLA-DP402 (DPB1*0402) (Homo sapiens, UniProt P04440+P20036, A65V/A84D/A85E/L207M); assay type: binding; conditions: ratio of IC50 of competitor peptide to IC50 of reference peptide; mean of at least two independent experiments; less than 100 = active
T2 sequence (P04440 30-258 A65V/A84D/A85E): T1 sequence (P04440 30-258) with A36V, A55D, A56E
T2 sequence (P20036 29-260): T1 sequence (P20036 29-260)

HLA-DR11 (DRB1*1101) = HLA-DR11 (DRB1*1101) (Homo sapiens, UniProt P01903+P01911, A100R/A169T/A87E/I96F/K41T/L162R/M171V/P40S/Q125H/Q178H/Q39Y/Q99D/R42S/S66Y/T262R/V115G/W38E); assay type: binding; conditions: ratio of IC50 of competitor peptide to IC50 of reference peptide; mean of at least two independent experiments; less than 100 = active

Substance	Relative binding activity, DRB3 (HLA-DRB3 (DRB3*0101))	Relative binding activity, DR3 (HLA-DR3 (DRB1*0301))	Relative binding activity, DR7 (HLA-DR7 (DRB1*0701))	Relative binding activity, DP401 (HLA-DP401 (DPB1*0401))	Relative binding activity, DR1 (HLA-DR1 (DRB1*0101))	Total (number of the 12 predominant HLA II molecules bound) [1]	Relative binding activity, DRB5 (HLA-DRB5 (DRB5*0101))	Relative binding activity, DR4 (HLA-DR4 (DRB1*0401))	Relative binding activity, DR13 (HLA-DR13 (DRB1*1301))	Relative binding activity, DRB4 (HLA-DRB4 (DRB4*0101))	Relative binding activity, DR15 (HLA-DR15 (DRB1*1501))	Relative binding activity, DP402 (HLA-DP402 (DPB1*0402))	Relative binding activity, DR11 (HLA-DR11 (DRB1*1101))
A E W A W G P C T P S S K D C (AEWAWGPCTPSSKDC) [MDK 38-52]	>485	>419	>2 479	>879	1 305	0	>2 100	1 859	>2 537	>28 868	>529	–	–
C G V G F R E G T C G A Q T Q (CGVGFREGTCGAQTQ) [MDK 52-64]	>485	>419	>2 479	>879	–	1	>2 100	–	>2 537	>28 868	>529	>976	–
C K Y K F E N W G A C D G G T (CKYKFENWGACDGGT) [MDK 84-98]	>485	>419	>2 479	–	187	2	–	–	>2 537	>28 868	141	–	>1 086
C N W K K E F G A D C K Y K F (CNWKKEFGADCKYKF) [MDK 74-88]	–	–	>2 479	>879	–	1	–	>1 812	>2 537	>28 868	>529	>976	1 231
C R V P C N W K K E F G A D C (CRVPCNWKKEFGADC) [MDK 70-84]	–	>419	>2 479	–	–	2	>2 100	1 562	>2 537	>28 868	>529	>976	>1 086
E N W G A C D G G T G T K V R (ENWGACDGGTGTKVR) [MDK 89-103]	2 333	>419	>2 479	>879	1 460	0	>2 100	>1 812	>2 537	>28 868	>529	>976	>1 086
G T K V R Q G T L K K A R Y N (GTKVRQGTLKKARYN) [MDK 99-113]	>485	>419	>2 479	>879	3 000	1	–	>1 812	–	>28 868	>529	>976	>1 086
G T L K K A R Y N A Q C Q E T (GTLKKARYNAQCQET) [MDK 105-119]	>485	>419	>2 479	>879	–	1	>2 100	–	>2 537	>28 868	225	>976	1 008
K D K V K K G G P G S E C A E (KDKVKKGGPGSECAE) [MDK 25-39]	>485	>419	>2 479	>879	1 251	0	>2 100	>1 812	>2 537	>28 868	>529	>976	>1 086
K E F G A D C K Y K F E N W G (KEFGADCKYKFENWG) [MDK 78-92]	–	–	>2 479	–	299	–	–	–	>2 537	>28 868	216	–	–
Q T Q R I R C R V P C N W K K (QTQRIRCRVPCNWKK) [MDK 64-78]	>485	>419	2 066	>879	246	1	–	–	>2 537	1 155	>529	>976	–
T S A V A K K K D K V K K G G (TSAVAKKKDKVKKGG) [MDK 18-32]	>485	>419	>2 479	>879	>5 291	0	>2 100	>1 812	132	>28 868	>529	>976	>1 086
